# Patent US20230109393A1 (UNITED BIOMEDICAL, published 2023)
# B1: HRP alone (enzyme, UniProt P00433 31-338, looked up)
# chain: QLTPTFYDNSCPNVSNIVRDTIVNELRSDPRIAASILRLHFHDCFVNGCDASILLDNTTSFRTEKDAFGNANSARGFPVIDRMKAAVESACPRTVSCADLLTIAAQQSVTLAGGPSWRVPLGRRDSLQAFLDLANANLPAPFFTLPQLKDSFRNVGLNRSSDLVALSGGHTFGKNQCRFIMDRLYNFSNTGLPDPTLNTTYLQTLRGLCPLNGNLSALVDFDLRTPTIFDNKYYVNLEEQKGLIQSDQELFSSPNATDTIPLVRSFANSTQTFFNAFVEAMDRMGNITPLTGTQGQIRLNCRVVNSNS
# notes: also called HPR alone; control tracer
# Target: T1, ACE2-ECD-sFc fusion protein (Homo sapiens)
# T1 construct: also called ACE2-sFc; ACE ECD-sFc
# Assay: ELISA, plate coated with ACE2 ECD-sFc
binder,measurement,value
B1,binding result,no binding
